Experiment [1] addresses His-tagged human IL-18BP (human) (UniProt O95998). Nature of the experiment: alphaLISA of free IL-18BP after 1 h with titrated IL-18.
Experiment [2] addresses modified IL-18 polypeptide SEQ ID NO: 215 (V11I, E31A, D37A, C38A, K53A, C76A, C127A) (human) (UniProt Q14116). Nature of the experiment: cell-based or functional assay.
The target of experiment [3] is modified IL-18 polypeptide SEQ ID NO: 216 (V11I, C38A, D40A, K53A, C76A, C127A) (human) (UniProt Q14116). Nature of the experiment: cell-based or functional assay.
Experiment [4] deals with PEGylated modified IL-18 polypeptide SEQ ID NO: 9 + PEG (E6K, C38A, K53A, C68A, D98C-30kPEG) (human) (UniProt Q14116). Nature of the experiment: cell-based or functional assay.
For experiment [5], the target named is modified IL-18 polypeptide SEQ ID NO: 227 (V11I, C38A, S55T, C76A, C127A) (human) (UniProt Q14116). Kind of experiment: cell-based or functional assay.
Experiment [6] addresses modified IL-18 polypeptide SEQ ID NO: 207 (V11I, C38A, M51G, K53A, C76A, C127A) (human) (UniProt Q14116). Kind of experiment: cell-based or functional assay.
Experiment [7] concerns the target modified IL-18 polypeptide SEQ ID NO: 222 (K8R, V11I, C38A, C76A, Q103E, C127A) (human) (UniProt Q14116). Nature of the experiment: cell-based or functional assay.
Experiment [8] has as its target modified IL-18 polypeptide SEQ ID NO: 8 (E6K, V11I, C38A, K53A, T63A, C68A, C76A, T95C, C127A) (human) (UniProt Q14116). Kind of experiment: cell-based or functional assay.
Experiment [9] concerns the target modified IL-18 polypeptide SEQ ID NO: 212 (V11I, D35A, C38A, K53A, C76A, C127A) (human) (UniProt Q14116). Kind of experiment: cell-based or functional assay.
In experiment [10] the target is modified IL-18 polypeptide SEQ ID NO: 205 (V11I, C38A, K53A, T63A, C76A, C127A) (human) (UniProt Q14116). Kind of experiment: cell-based or functional assay.
The target in experiment [11] is modified IL-18 polypeptide SEQ ID NO: 209 (F2A, V11I, C38A, K53A, C76A, C127A) (human) (UniProt Q14116). Kind of experiment: cell-based or functional assay.
Experiment [12] deals with modified IL-18 polypeptide SEQ ID NO: 63 (E6K, C38A, K53A, C76A, C127A) (human) (UniProt Q14116). Nature of the experiment: cell-based or functional assay.
Experiment [13] deals with modified IL-18 polypeptide SEQ ID NO: 224 (V11I, C38A, C76A, Q103K, C127A) (human) (UniProt Q14116). Nature of the experiment: cell-based or functional assay.
The target in experiment [14] is modified IL-18 polypeptide SEQ ID NO: 60 (E6K, C38Q, K53A) (human) (UniProt Q14116). Kind of experiment: cell-based or functional assay.
Experiment [15] has as its target modified IL-18 polypeptide SEQ ID NO: 206 (V11I, C38A, K53A, S55A, C76A, C127A) (human) (UniProt Q14116). Nature of the experiment: cell-based or functional assay.
For experiment [16], the target named is PEGylated modified IL-18 polypeptide SEQ ID NO: 4 + PEG (E6K, C38A, K53A, C68A, M86C-30kPEG) (human) (UniProt Q14116). Nature of the experiment: cell-based or functional assay.
Experiment [17] concerns the target modified IL-18 polypeptide SEQ ID NO: 210 (V11I, E31A, C38A, K53A, C76A, C127A) (human) (UniProt Q14116). Kind of experiment: cell-based or functional assay.
The target in experiment [18] is modified IL-18 polypeptide SEQ ID NO: 220 (V11I, C38A, K53A, C76A, H109A, C127A) (human) (UniProt Q14116). Nature of the experiment: cell-based or functional assay.
For experiment [19], the target named is modified IL-18 polypeptide SEQ ID NO: 213 (V11I, S36A, C38A, K53A, C76A, C127A) (human) (UniProt Q14116). Nature of the experiment: cell-based or functional assay.
The target of experiment [20] is PEGylated modified IL-18 polypeptide SEQ ID NO: 5 + PEG (E6K, V11I, C38A, K53A, T63A, C68A, C76A, C127A, M86C-30kPEG) (human) (UniProt Q14116). Kind of experiment: cell-based or functional assay.
The target in experiment [21] is modified IL-18 polypeptide SEQ ID NO: 214 (V11I, D37A, C38A, K53A, C76A, C127A) (human) (UniProt Q14116). Nature of the experiment: cell-based or functional assay.
The target of experiment [22] is modified IL-18 polypeptide SEQ ID NO: 6 (E6K, V11I, C38A, K53A, T63A, C68A, C76A, D98C, C127A) (human) (UniProt Q14116). Kind of experiment: cell-based or functional assay.
Experiment [23] deals with modified IL-18 polypeptide SEQ ID NO: 62 (E6K, C38A, K53A, C127A) (human) (UniProt Q14116). Kind of experiment: cell-based or functional assay.
The target in experiment [24] is modified IL-18 polypeptide SEQ ID NO: 229 (V11I, C38A, C76A, S105K, C127A) (human) (UniProt Q14116). Nature of the experiment: cell-based or functional assay.
For experiment [25], the target named is modified IL-18 polypeptide SEQ ID NO: 5 (E6K, V11I, C38A, K53A, T63A, C68A, C76A, M86C, C127A) (human) (UniProt Q14116). Kind of experiment: cell-based or functional assay.
The target in experiment [26] is modified IL-18 polypeptide SEQ ID NO: 226 (V11I, C38A, S55R, C76A, C127A) (human) (UniProt Q14116). Kind of experiment: cell-based or functional assay.
Experiment [27] concerns the target modified IL-18 polypeptide SEQ ID NO: 208 (V11I, C38A, K53A, D54A, C76A, C127A) (human) (UniProt Q14116). Nature of the experiment: cell-based or functional assay.
Experiment [28] has as its target modified IL-18 polypeptide SEQ ID NO: 30 (E6K, V11I, C38A, K53A, T63A, C76A, C127A) (human) (UniProt Q14116). Kind of experiment: cell-based or functional assay.
Experiment [29] has as its target modified IL-18 polypeptide SEQ ID NO: 4 (E6K, C38A, K53A, C68A, M86C) (human) (UniProt Q14116). Nature of the experiment: cell-based or functional assay.
Experiment [30] deals with wild type IL-18 (SEQ ID NO: 1, native sequence) (human) (UniProt Q14116). Kind of experiment: cell-based or functional assay.
Experiment [31] has as its target modified IL-18 polypeptide SEQ ID NO: 223 (K8E, V11I, C38A, C76A, Q103R, C127A) (human) (UniProt Q14116). Kind of experiment: cell-based or functional assay.
Experiment [32] addresses modified IL-18 polypeptide SEQ ID NO: 28 (E6K, C38A, K53A, T63A, C76A, C127A) (human) (UniProt Q14116). Nature of the experiment: cell-based or functional assay.
Experiment [33] addresses modified IL-18 polypeptide SEQ ID NO: 219 (V11I, C38A, K53A, C76A, G108A, C127A) (human) (UniProt Q14116). Nature of the experiment: cell-based or functional assay.
Experiment [34] addresses modified IL-18 polypeptide SEQ ID NO: 217 (V11I, C38A, N41A, K53A, C76A, C127A) (human) (UniProt Q14116). Kind of experiment: cell-based or functional assay.
The target in experiment [35] is modified IL-18 polypeptide SEQ ID NO: 221 (V11I, C38A, K53A, C76A, D110A, C127A) (human) (UniProt Q14116). Kind of experiment: cell-based or functional assay.
Experiment [36] deals with modified IL-18 polypeptide SEQ ID NO: 61 (E6K, C38A, K53A, C76A) (human) (UniProt Q14116). Nature of the experiment: cell-based or functional assay.
Experiment [37] concerns the target modified IL-18 polypeptide SEQ ID NO: 9 (E6K, C38A, K53A, C68A, D98C) (human) (UniProt Q14116). Kind of experiment: cell-based or functional assay.
Experiment [38] has as its target modified IL-18 polypeptide SEQ ID NO: 59 (E6K, C38A, K53A) (human) (UniProt Q14116). Nature of the experiment: cell-based or functional assay.
Experiment [39] has as its target modified IL-18 polypeptide SEQ ID NO: 228 (V11I, C38A, C76A, S105I, C127A) (human) (UniProt Q14116). Nature of the experiment: cell-based or functional assay.
Experiment [40] has as its target modified IL-18 polypeptide SEQ ID NO: 211 (V11I, T34A, C38A, K53A, C76A, C127A) (human) (UniProt Q14116). Nature of the experiment: cell-based or functional assay.
Experiment [41] deals with PEGylated modified IL-18 polypeptide SEQ ID NO: 6 + PEG (E6K, V11I, C38A, K53A, T63A, C68A, C76A, C127A, D98C-30kPEG) (human) (UniProt Q14116). Kind of experiment: cell-based or functional assay.
The target in experiment [42] is modified IL-18 polypeptide SEQ ID NO: 11 (E6K, V11I, C38A, K53A, C76A, C127A) (human) (UniProt Q14116). Nature of the experiment: cell-based or functional assay.
Experiment [43] has as its target modified IL-18 polypeptide SEQ ID NO: 218 (V11I, C38A, K53A, C76A, C127A, D132A) (human) (UniProt Q14116). Kind of experiment: cell-based or functional assay.
Experiment [44] addresses modified IL-18 polypeptide SEQ ID NO: 225 (V11I, C38A, S55H, C76A, C127A) (human) (UniProt Q14116). Kind of experiment: cell-based or functional assay.
Experiment [45] concerns the target modified IL-18 polypeptide SEQ ID NO: 204 (V11I, C38A, K53A, C76A, C127A) (human) (UniProt Q14116). Nature of the experiment: cell-based or functional assay.
In experiment [46] the target is modified IL-18 polypeptide SEQ ID NO: 57 (E6K, C38S, K53A) (human) (UniProt Q14116). Nature of the experiment: cell-based or functional assay.
In experiment [47] the target is Fc fused human IL-18BP isoform a (IL-18BPa) (human) (UniProt O95998). Nature of the experiment: SPR, Fc-IL-18BPa captured via anti-human IgG, IL-18 as analyte, 1:1 model.

Here are results for 4 substances from patent US20230357342A1.

Chain of Fc fused human IL-18BP isoform a (IL-18BPa) (human) (O95998 31-194): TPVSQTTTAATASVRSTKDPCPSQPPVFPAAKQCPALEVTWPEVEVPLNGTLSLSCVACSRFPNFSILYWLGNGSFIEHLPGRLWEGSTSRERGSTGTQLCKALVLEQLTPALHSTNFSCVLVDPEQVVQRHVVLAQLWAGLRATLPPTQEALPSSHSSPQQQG
Chain of wild type IL-18 (SEQ ID NO: 1, native sequence) (Q14116 37-193): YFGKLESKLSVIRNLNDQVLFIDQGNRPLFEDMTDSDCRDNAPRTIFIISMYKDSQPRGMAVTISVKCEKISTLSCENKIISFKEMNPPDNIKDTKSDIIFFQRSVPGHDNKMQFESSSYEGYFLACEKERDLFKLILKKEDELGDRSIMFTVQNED
Chain of modified IL-18 polypeptide SEQ ID NO: 215 (V11I, E31A, D37A, C38A, K53A, C76A, C127A) (human) (Q14116 37-193 V47I/E67A/D73A/C74A/K89A/C112A/C163A): as the sequence (Q14116 37-193) above, with V11I, E31A, D37A, C38A, K53A, C76A, C127A counted along it
Chain of modified IL-18 polypeptide SEQ ID NO: 63 (E6K, C38A, K53A, C76A, C127A) (human) (Q14116 other isoform, or with tags, fused parts or gaps C38A K53A C76A C127A C38A K53A C76A C127A): as the sequence (Q14116 37-193) above, with E6K, C38A, K53A, C76A, C127A counted along it
Chain of modified IL-18 polypeptide SEQ ID NO: 30 (E6K, V11I, C38A, K53A, T63A, C76A, C127A) (human) (Q14116 other isoform, or with tags, fused parts or gaps with the stated changes): as the sequence (Q14116 37-193) above, with E6K, V11I, C38A, K53A, T63A, C76A, C127A counted along it
Chain of modified IL-18 polypeptide SEQ ID NO: 223 (K8E, V11I, C38A, C76A, Q103R, C127A) (human) (Q14116 other isoform, or with tags, fused parts or gaps V11I C38A C76A Q103R C127A V11I C38A C76A Q103R C127A): as the sequence (Q14116 37-193) above, with K8E, V11I, C38A, C76A, Q103R, C127A counted along it
Chain of modified IL-18 polypeptide SEQ ID NO: 229 (V11I, C38A, C76A, S105K, C127A) (human) (Q14116 37-193 V47I/C74A/C112A/S141K/C163A): as the sequence (Q14116 37-193) above, with V11I, C38A, C76A, S105K, C127A counted along it
Chain of modified IL-18 polypeptide SEQ ID NO: 205 (V11I, C38A, K53A, T63A, C76A, C127A) (human) (Q14116 37-193 V47I/C74A/K89A/T99A/C112A/C163A): as the sequence (Q14116 37-193) above, with V11I, C38A, K53A, T63A, C76A, C127A counted along it
Chain of modified IL-18 polypeptide SEQ ID NO: 227 (V11I, C38A, S55T, C76A, C127A) (human) (Q14116 37-193 V47I/C74A/S91T/C112A/C163A): as the sequence (Q14116 37-193) above, with V11I, C38A, S55T, C76A, C127A counted along it
Chain of modified IL-18 polypeptide SEQ ID NO: 220 (V11I, C38A, K53A, C76A, H109A, C127A) (human) (Q14116 37-193 V47I/C74A/K89A/C112A/H145A/C163A): as the sequence (Q14116 37-193) above, with V11I, C38A, K53A, C76A, H109A, C127A counted along it
Chain of PEGylated modified IL-18 polypeptide SEQ ID NO: 9 + PEG (E6K, C38A, K53A, C68A, D98C-30kPEG) (human) (Q14116 other isoform, or with tags, fused parts or gaps C38A K53A C68A D98C C38A K53A C68A D98C): as the sequence (Q14116 37-193) above, with E6K, C38A, K53A, C68A, D98C counted along it
Chain of modified IL-18 polypeptide SEQ ID NO: 9 (E6K, C38A, K53A, C68A, D98C) (human) (Q14116 other isoform, or with tags, fused parts or gaps C38A K53A C68A D98C C38A K53A C68A D98C): as the sequence (Q14116 37-193) above, with E6K, C38A, K53A, C68A, D98C counted along it
Chain of modified IL-18 polypeptide SEQ ID NO: 228 (V11I, C38A, C76A, S105I, C127A) (human) (Q14116 37-193 V47I/C74A/C112A/S141I/C163A): as the sequence (Q14116 37-193) above, with V11I, C38A, C76A, S105I, C127A counted along it
Chain of modified IL-18 polypeptide SEQ ID NO: 216 (V11I, C38A, D40A, K53A, C76A, C127A) (human) (Q14116 37-193 V47I/C74A/D76A/K89A/C112A/C163A): as the sequence (Q14116 37-193) above, with V11I, C38A, D40A, K53A, C76A, C127A counted along it
Chain of modified IL-18 polypeptide SEQ ID NO: 28 (E6K, C38A, K53A, T63A, C76A, C127A) (human) (Q14116 other isoform, or with tags, fused parts or gaps C38A K53A T63A C76A C127A C38A K53A T63A C76A C127A): as the sequence (Q14116 37-193) above, with E6K, C38A, K53A, T63A, C76A, C127A counted along it
Chain of modified IL-18 polypeptide SEQ ID NO: 61 (E6K, C38A, K53A, C76A) (human) (Q14116 other isoform, or with tags, fused parts or gaps C38A K53A C76A C38A K53A C76A): as the sequence (Q14116 37-193) above, with E6K, C38A, K53A, C76A counted along it
Chain of wild type IL-18 (SEQ ID NO: 1, native sequence) (human) (Q14116 37-193): as the sequence (Q14116 37-193) above
Chain of modified IL-18 polypeptide SEQ ID NO: 226 (V11I, C38A, S55R, C76A, C127A) (human) (Q14116 37-193 V47I/C74A/S91R/C112A/C163A): as the sequence (Q14116 37-193) above, with V11I, C38A, S55R, C76A, C127A counted along it
Chain of modified IL-18 polypeptide SEQ ID NO: 218 (V11I, C38A, K53A, C76A, C127A, D132A) (human) (Q14116 37-193 V47I/C74A/K89A/C112A/C163A/D168A): as the sequence (Q14116 37-193) above, with V11I, C38A, K53A, C76A, C127A, D132A counted along it
Chain of modified IL-18 polypeptide SEQ ID NO: 219 (V11I, C38A, K53A, C76A, G108A, C127A) (human) (Q14116 37-193 V47I/C74A/K89A/C112A/G144A/C163A): as the sequence (Q14116 37-193) above, with V11I, C38A, K53A, C76A, G108A, C127A counted along it
Chain of modified IL-18 polypeptide SEQ ID NO: 4 (E6K, C38A, K53A, C68A, M86C) (human) (Q14116 other isoform, or with tags, fused parts or gaps C38A K53A C68A M86C C38A K53A C68A M86C): as the sequence (Q14116 37-193) above, with E6K, C38A, K53A, C68A, M86C counted along it
Chain of PEGylated modified IL-18 polypeptide SEQ ID NO: 4 + PEG (E6K, C38A, K53A, C68A, M86C-30kPEG) (human) (Q14116 other isoform, or with tags, fused parts or gaps C38A K53A C68A M86C C38A K53A C68A M86C): as the sequence (Q14116 37-193) above, with E6K, C38A, K53A, C68A, M86C counted along it
Chain of modified IL-18 polypeptide SEQ ID NO: 204 (V11I, C38A, K53A, C76A, C127A) (human) (Q14116 37-193 V47I/C74A/K89A/C112A/C163A): as the sequence (Q14116 37-193) above, with V11I, C38A, K53A, C76A, C127A counted along it
Chain of modified IL-18 polypeptide SEQ ID NO: 206 (V11I, C38A, K53A, S55A, C76A, C127A) (human) (Q14116 37-193 V47I/C74A/K89A/S91A/C112A/C163A): as the sequence (Q14116 37-193) above, with V11I, C38A, K53A, S55A, C76A, C127A counted along it
Chain of modified IL-18 polypeptide SEQ ID NO: 62 (E6K, C38A, K53A, C127A) (human) (Q14116 other isoform, or with tags, fused parts or gaps C38A K53A C127A C38A K53A C127A): as the sequence (Q14116 37-193) above, with E6K, C38A, K53A, C127A counted along it
Chain of modified IL-18 polypeptide SEQ ID NO: 213 (V11I, S36A, C38A, K53A, C76A, C127A) (human) (Q14116 37-193 V47I/S72A/C74A/K89A/C112A/C163A): as the sequence (Q14116 37-193) above, with V11I, S36A, C38A, K53A, C76A, C127A counted along it
Chain of modified IL-18 polypeptide SEQ ID NO: 211 (V11I, T34A, C38A, K53A, C76A, C127A) (human) (Q14116 37-193 V47I/T70A/C74A/K89A/C112A/C163A): as the sequence (Q14116 37-193) above, with V11I, T34A, C38A, K53A, C76A, C127A counted along it
Chain of modified IL-18 polypeptide SEQ ID NO: 225 (V11I, C38A, S55H, C76A, C127A) (human) (Q14116 37-193 V47I/C74A/S91H/C112A/C163A): as the sequence (Q14116 37-193) above, with V11I, C38A, S55H, C76A, C127A counted along it

Regarding “modified IL-18 polypeptide SEQ ID NO: 59 (E6K, C38A, K53A) (from UniProt Q14116 37-193) (ligand)”, the Kd in experiment [1] is 36 nM.
Take “Fc fused human IL-18BP isoform a (IL-18BPa) (from UniProt O95998 31-194) (Fc fusion)”: the IC50, IFNγ secretion by NK-92 cells in [2] is 3.71 nM; in experiment [3], 3.23 nM; in [4] it was 27.2 nM; in [5], 0.44 nM; in experiment [6], 733 nM; in [7] it was 1.07 nM. For the same substance, the IC50, IFNγ secretion by NK-92 cells in [8] came to 522 nM; in experiment [9], 3.62 nM; in [10], 7.52 nM; in [11] it was 5.05 nM; in [12] it was 286 nM; in experiment [13], 0.823 nM. The IC50, IFNγ secretion by NK-92 cells in experiment [14] amounted to 780 nM; in [15], 10.2 nM; in experiment [16], 34 nM; in experiment [17] it was 1.17 nM; in experiment [18], 1.81 nM; in experiment [19] it was 7.85 nM. Also, the IC50, IFNγ secretion by NK-92 cells in experiment [20] was determined as 12 nM; in [21], 2.22 nM; in experiment [22], 5.85 nM; in experiment [23] it was 284 nM; in [24], 0.176 nM; in experiment [25] it was 62.4 nM. Besides, the IC50, IFNγ secretion by NK-92 cells was 0.885 nM in experiment [26]; 47.6 nM in experiment [27]; 488 nM in experiment [28]; 396 nM in experiment [29]; 0.787 nM in [30]; 7.29 nM in experiment [31]. Moreover, the IC50, IFNγ secretion by NK-92 cells in experiment [32] came to 233 nM; in experiment [33] it was 3.98 nM; in experiment [34] it was 0.681 nM; in experiment [35], 3.18 nM; in [36], 779 nM; in experiment [37] it was 961 nM. Moreover, the IC50, IFNγ secretion by NK-92 cells in experiment [38] worked out at 654 nM; in experiment [39], 0.809 nM; in experiment [40], 21.3 nM; in [41], 14.3 nM; in experiment [42], 532 nM; in [43] it was 6.08 nM. Moreover, the IC50, IFNγ secretion by NK-92 cells in [44] turned out to be 0.456 nM; in [45], 1.62 nM; in experiment [46] it was 146 nM.
Take “modified IL-18 polypeptide SEQ ID NO: 57 (E6K, C38S, K53A) (from UniProt Q14116 37-193) (ligand)”: in experiment [47], the Kd was determined as 2.72 nM, the koff was found to be 0.0031 s⁻¹ and the kon amounted to 1.14e+06 M⁻¹ s⁻¹.
In experiment [1], “wild type IL-18 (SEQ ID NO: 1, native sequence) (from UniProt Q14116 37-193) (ligand)” showed a Kd of 0.414 nM. In [47], the Kd came to 0.27 nM, the koff was 0.000383 s⁻¹ and the kon came out at 1.49e+06 M⁻¹ s⁻¹.
